PMC4486471 (Nature communications, 2014)

Biological target: the molecule itself
Assay: crystal structure

B1: auto-phosphorylated minimal dual catalytic domain fragment of murine IRE1α encompassing residues 549 to 977 (domain or fragment, mouse, UniProt Q9EQY0 549-977, looked up)
chain: SPSLEQDDEDEETRMVIVGKISFCPKDVLGHGAEGTIVYKGMFDNRDVAVKRILPECFSFADREVQLLRESDEHPNVIRYFCTEKDRQFQYIAIELCAATLQEYVEQKDFAHLGLEPITLLHQTTSGLAHLHSLNIVHRDLKPHNILLSMPNAHGRIKAMISDFGLCKKLAVGRHSFSRRSGVPGTEGWIAPEMLSEDCKDNPTYTVDIFSAGCVFYYVISEGYHPFGKSLQRQANILLGACNLDCFHSDKHEDVIARELIEKMIAMDPQQRPSAKHVLKHPFFWSLEKQLQFFQDVSDRIEKEALDGPIVRQLERGGRAVVKMDWRENITVPLQTDLRKFRTYKGGSVRDLLRAMRNKKHHYRELPVEVQETLGSIPDDFVRYFTSRFPHLLSHTYQAMELCRHERLFQTYYWHEPTEPQPPVIPYAL
modifications: auto-phosphorylated (sites not given)
B1: binds.
